# B1: ZBED2 (parent)
# chain: RAGHHPNQYATCRLCGRQVSRGPG
# Variants of: B1
# Experiment: protein stability index of a GFP-peptide fusion (GPS, HEK-293T) (PSI 1-6); higher = more stable
# Conditions: c terminus: a fixed tail appended
# 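Further: lentivirally expressed fusions sorted by FACS into six bins by GFP to DsRed ratio, PSI derived from sequencing read proportions per bin multiplied by bin number.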
row,Variant,protein stability index
1,RAGHHPNQYATCRLCGRNVSRGPG,2.12
2,RAGHHPNQYATCRLCGRIVSRGPG,2.23
3,RAGHHPNQYATCRLCGRSVSRGPG,1.23
4,RAGHHPNQYATCRLCGRAVSRGPG,2.44
5,RAGHHPNQYATCRLCGRWVSRGPG,1.27
6,RAGHHPNQYATCRLCGREVSRGPG,1
7,RAGHHPNQYATCRLCGRHVSRGPG,2.59
8,RAGHHPNQYATCRLCGRMVSRGPG,2.17
9,RAGHHPNQYATCRLCGRFVSRGPG,2.67
10,RAGHHPNQYATCRLCGRGVSRGPG,2.68
11,RAGHHPNQYATCRHCGRQVSRGPG,1.75
12,RAGHHPNQYATCRSCGRQVSRGPG,1.57
13,RAGHHPNQYATCRCCGRQVSRGPG,2.79
14,RAGHHPNQYATCRVCGRQVSRGPG,1.07
15,RAGHHPNQYATCRWCGRQVSRGPG,2.12
16,RAGHHPNQYATCRGCGRQVSRGPG,2.04
17,RAGHHPNQYATCRRCGRQVSRGPG,2.39
18,RAGHHPNQYATCRPCGRQVSRGPG,1.82
19,RAGHHPNQYATCRACGRQVSRGPG,1.78
20,RAGHHPNQYATCRTCGRQVSRGPG,1.49
21,RAGHHPNQYATCRQCGRQVSRGPG,1.15
22,RAGHHPNQYATCRICGRQVSRGPG,1.48
23,RAGHHPNQYATCRNCGRQVSRGPG,1.25
24,RAGHHPNQYATCRKCGRQVSRGPG,2.66

row,Variant,protein stability index
1,RAGHHPNQYATCRLCHRQVSRGPG,1.9
2,RAGHHPNQYATCRLCPRQVSRGPG,2.41
3,RAGHHPNQYATCRLCYRQVSRGPG,3.58
4,RAGHHPNQYATCRLCCRQVSRGPG,1.25
5,RAGHHPNQYATCRLCWRQVSRGPG,3.77
6,RAGHHPNQYATCRLCSRQVSRGPG,2.2
7,RAGHHPNQYATCRLCTRQVSRGPG,1.41
8,RAGHHPNQYATCRLCDRQVSRGPG,1.78
9,RAGHHPNQYATCRLCQRQVSRGPG,1.81
10,RAGHHPNQYATCRLCNRQVSRGPG,2.51
11,RAGHHPNQYATCRLCERQVSRGPG,2.46
12,RAGHHPNQYATCRLCKRQVSRGPG,1.51
13,RAGHHPNQYATCRLCGRQFSRGPG,2.08
14,RAGHHPNQYATCRLCGRQESRGPG,1.7
15,RAGHHPNQYATCRLCGRQCSRGPG,3.7
16,RAGHHPNQPATCRLCGRQVSRGPG,3.34
17,RAGHHPNQLATCRLCGRQVSRGPG,1.6
18,RAGHHPNQHATCRLCGRQVSRGPG,2.28
19,RAGHHPNQNATCRLCGRQVSRGPG,2.33
20,RAGHHPNQSATCRLCGRQVSRGPG,2.72
21,RAGHHPNQAATCRLCGRQVSRGPG,2.33
22,RAGHHPNQFATCRLCGRQVSRGPG,1.67
23,RAGHHPNQIATCRLCGRQVSRGPG,2.06

# From the supplement of paper PMC10567573
